Experimental findings from patent US20020045591A1 (published 2002) are described below.

Experiment [1] concerns the target T1, Endogenous β-catenin of SW480 human colon carcinoma cells (human, UniProt P35222 2-781).
T1 construct: whole, on cells
T1 sequence (looked up): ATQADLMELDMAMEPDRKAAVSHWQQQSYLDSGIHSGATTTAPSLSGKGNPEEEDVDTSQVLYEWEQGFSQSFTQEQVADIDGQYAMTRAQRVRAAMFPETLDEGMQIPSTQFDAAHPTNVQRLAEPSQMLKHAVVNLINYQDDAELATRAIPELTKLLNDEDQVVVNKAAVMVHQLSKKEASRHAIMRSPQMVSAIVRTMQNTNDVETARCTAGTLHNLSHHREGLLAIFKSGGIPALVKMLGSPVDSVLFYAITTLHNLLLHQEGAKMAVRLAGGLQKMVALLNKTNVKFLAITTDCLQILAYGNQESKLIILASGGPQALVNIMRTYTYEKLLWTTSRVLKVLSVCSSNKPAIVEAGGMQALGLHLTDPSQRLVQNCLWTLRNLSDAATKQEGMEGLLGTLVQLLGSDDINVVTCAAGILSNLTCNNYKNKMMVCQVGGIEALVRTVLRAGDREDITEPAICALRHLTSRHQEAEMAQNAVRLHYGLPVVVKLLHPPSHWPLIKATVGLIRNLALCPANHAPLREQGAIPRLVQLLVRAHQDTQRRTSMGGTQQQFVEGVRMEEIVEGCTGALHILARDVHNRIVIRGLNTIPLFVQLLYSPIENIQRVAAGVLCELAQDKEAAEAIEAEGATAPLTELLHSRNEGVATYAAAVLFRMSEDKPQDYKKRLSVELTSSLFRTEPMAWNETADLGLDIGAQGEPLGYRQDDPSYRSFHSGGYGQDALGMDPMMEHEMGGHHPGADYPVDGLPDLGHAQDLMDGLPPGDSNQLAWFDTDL
The experiment can be described thus: double immunofluorescence, transfected SW480 cells.

The target of another experiment is HA-tagged LEF-1. The experiment can be described thus: cell-based or functional assay.
Sequence of HA-tagged LEF-1 (P27782 whole entry): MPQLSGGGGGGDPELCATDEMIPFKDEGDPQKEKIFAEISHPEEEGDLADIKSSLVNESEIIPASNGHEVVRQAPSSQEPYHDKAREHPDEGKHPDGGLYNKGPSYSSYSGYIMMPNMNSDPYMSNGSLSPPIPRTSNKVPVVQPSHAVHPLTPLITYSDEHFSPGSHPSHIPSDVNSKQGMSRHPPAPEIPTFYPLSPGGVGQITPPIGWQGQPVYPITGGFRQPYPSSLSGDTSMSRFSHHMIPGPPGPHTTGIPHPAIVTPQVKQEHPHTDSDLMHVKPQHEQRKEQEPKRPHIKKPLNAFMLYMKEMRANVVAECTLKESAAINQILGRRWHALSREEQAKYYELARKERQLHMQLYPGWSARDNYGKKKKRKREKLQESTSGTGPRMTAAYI

B1: HA-tagged chicken α-catenin (other)
chain: TAVTAGNVNFRWDPKSLEIRTLAVERLLEPLVTQVTTLVNTSNKGPSNKKRGRSKKAHVLAASVEQATENFLDKGDKIAKESQFLKEELVAAVEDVRKQGDLMKSASGEFADDPCSSVKRGNMVRAARALLSAVTRLLILADMADVYKLLVQLKVVEEGILKLRNAGTEQDLGIQYKALKPEVDKLNIMAAKRQQELKDVGHRDQMAAARGILQKNVPILYTASQACLQHFDVAAYKANRDLIYKQLQQAVTGISNAAQATASDDAAQQQGGGGELAYALNNFDKQIIVDPSTFSEQRFRPSLEERLESIISGAALMADSSCTRDDRRERIVAECNAVRQALQDLLSEYMGNAGRKERSDALNSAIDKMTKKTRDLRRQLRKAVMDHVSDSFLETNVPLLVLIEAARNGNEKEVKEYTQVFREHANKLIEVANLACSISNNEEGVKLVRMSASQLEALCPQVINAALALAAKPQSKLAQENMELFKEQWEKQVRVLTDAVDDITSIDDFLAVSENHILEDVNKCVIALQEKDVDGLDRTAGAIRGRAARVIHVVTSEMDNYEPGVYTEKVLEATKLLSNTVMPRFTEQVEAAVEALSSDPAQPMDENEFIDRSRLVYDGIRDIRKAVLMIRTPEELDDSDFETEDFDVRSKTSIQTEDDQLIAGQSARAIMAQLPQEQKAKIAEAVASFQEEKSKLDAEVSKWDDSGNDIIVLAKQMCMIMMEMTDFTRGKGPLKNTSDVISAAKKIAEAGSRMDKLGRTIADHCPDSASKQDLLAYLQRIALYCHQLNICSKVKAEVQNLGGELVVSGVDSAMSLIQAAKNLMNAVVQTVKASYVASTKYQKSQGMASLNLPAVSWKMKAPEKKPLVKREKQDETQTKIKRASQKKHVNPVQALSEFKAMESI
notes: also called HA α-catenin; not shown: 16-amino acids hemaglutinin (HA)-tag of the pCGN vector at the NH2-terminus
On to B1, for which the binding result in experiment [1] is reported as “binds”.

B2: Mouse β-catenin (transfected cDNA) (other, UniProt Q02248 2-781, looked up)
chain: ATQADLMELDMAMEPDRKAAVSHWQQQSYLDSGIHSGATTTAPSLSGKGNPEEEDVDTSQVLYEWEQGFSQSFTQEQVADIDGQYAMTRAQRVRAAMFPETLDEGMQIPSTQFDAAHPTNVQRLAEPSQMLKHAVVNLINYQDDAELATRAIPELTKLLNDEDQVVVNKAAVMVHQLSKKEASRHAIMRSPQMVSAIVRTMQNTNDVETARCTAGTLHNLSHHREGLLAIFKSGGIPALVKMLGSPVDSVLFYAITTLHNLLLHQEGAKMAVRLAGGLQKMVALLNKTNVKFLAITTDCLQILAYGNQESKLIILASGGPQALVNIMRTYTYEKLLWTTSRVLKVLSVCSSNKPAIVEAGGMQALGLHLTDPSQRLVQNCLWTLRNLSDAATKQEGMEGLLGTLVQLLGSDDINVVTCAAGILSNLTCNNYKNKMMVCQVGGIEALVRTVLRAGDREDITEPAICALRHLTSRHQEAEMAQNAVRLHYGLPVVVKLLHPPSHWPLIKATVGLIRNLALCPANHAPLREQGAIPRLVQLLVRAHQDTQRRTSMGGTQQQFVEGVRMEEIVEGCTGALHILARDVHNRIVIRGLNTIPLFVQLLYSPIENIQRVAAGVLCELAQDKEAAEAIEAEGATAPLTELLHSRNEGVATYAAAVLFRMSEDKPQDYKKRLSVELTSSLFRTEPMAWNETADLGLDIGAQGEALGYRQDDPSYRSFHSGGYGQDALGMDPMMEHEMGGHHPGADYPVDGLPDLGHAQDLMDGLPPGDSNQLAWFDTDL
With B2, in the experiment with HA-tagged LEF-1, the “luciferase activity (TOPFLASH reporter) in CHO cells” value was approximately 5 fold.
